# Data reported in PMC12599243, “Mechanistic insights into DNA binding by BD1 of the TAF1 tandem bromodomain module”.
# Tested on: TAF1 tandem bromodomain N1460F (human)
# Test: EMSA
# Conditions: no peptide; EMSA: 50 mM HEPES pH 7.5, 100 mM NaCl, 35 nM DNA, 1 h at 4 C; 6% native PAGE, 0.5x TBE, 100 V on ice. HeLa mononucleosome pulldown (undefined DNA) not listed.
substance,measurement,value
147 bp Widom 601 DNA,Kd,18.2 µM
